According to US20100204147A1, “Methods For Delivering Thymosin Beta 4, Analogues, Isoforms and Other Derivatives” (REGENERX BIOPHARMACEUTICALS, INC., priority 2003, published 2010):

What was measured:
Aα221-391 sub-fragment = molecular target: T1, Aα221-391 sub-fragment (Homo sapiens, UniProt P02671); test: ELISA of incorporation into immobilized Aα221-391 sub-fragment; assay type: biochemical
T1 construct: (residues Aα221-391 and Aα392-610, respectively); made in house; host or cells: E. coli, pET20b expression vector
T1 sequence (P02671 240-410): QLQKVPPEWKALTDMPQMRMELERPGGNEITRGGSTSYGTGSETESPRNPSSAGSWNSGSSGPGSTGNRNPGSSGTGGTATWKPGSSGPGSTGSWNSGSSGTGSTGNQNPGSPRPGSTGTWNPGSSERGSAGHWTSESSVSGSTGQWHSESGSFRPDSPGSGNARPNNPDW
Description: (§1) The interaction between thymosin β4 and fibrin(ogen) and its fragments in the presence or absence of FXIIIa was studies by ELISA using plastic microliter plates. Wells of microliter plates were coated overnight at […] with fibrinogen and fibrin at 10 μg/mL or with the recombinant fragments of 20 μg/ml, all in 0.1 M NaHCO3 buffer, pH 8.3. Fibrin was made by addition to the wells of a mixture containing 10 μg/mL fibrinogen 1 NIH u/ml thrombin and 400 u/ml aprotinin, followed by overnight incubation at +4° C. The wells were then blocked by incubation with Super Blocker (Pierce) at 37° C. for 1 h. Following washing with TBS containing 0.05% Tween-20 (TBS-Tween), the indicated concentrations of thymosin β4, FXIII, FXIIIa(Thr) and FXIIIa(Ca) were added to the wells and incubated for 2-2.5 h at 37° C. Bound (incorporated) thymosin β4 was detected by the reaction with rabbit anti-thymosin β4 serum and peroxidase-conjugated anti-rabbit IgG. A TMB Microwell Peroxidase Substrase was added to the wells, and the incorporated thymosin β4 was measured spectrophotometrically at 450 nm.

fibrinogen [1] = molecular target: T2, fibrinogen (Homo sapiens, UniProt P02671); test: Solid-phase binding assay (ELISA), immobilized fibrinogen
T2 construct: purchased Enzyme Research Laboratories (South Bend, Ind.)
T2 sequence (P02671 20-644 isoform P02671-2 limits assumed): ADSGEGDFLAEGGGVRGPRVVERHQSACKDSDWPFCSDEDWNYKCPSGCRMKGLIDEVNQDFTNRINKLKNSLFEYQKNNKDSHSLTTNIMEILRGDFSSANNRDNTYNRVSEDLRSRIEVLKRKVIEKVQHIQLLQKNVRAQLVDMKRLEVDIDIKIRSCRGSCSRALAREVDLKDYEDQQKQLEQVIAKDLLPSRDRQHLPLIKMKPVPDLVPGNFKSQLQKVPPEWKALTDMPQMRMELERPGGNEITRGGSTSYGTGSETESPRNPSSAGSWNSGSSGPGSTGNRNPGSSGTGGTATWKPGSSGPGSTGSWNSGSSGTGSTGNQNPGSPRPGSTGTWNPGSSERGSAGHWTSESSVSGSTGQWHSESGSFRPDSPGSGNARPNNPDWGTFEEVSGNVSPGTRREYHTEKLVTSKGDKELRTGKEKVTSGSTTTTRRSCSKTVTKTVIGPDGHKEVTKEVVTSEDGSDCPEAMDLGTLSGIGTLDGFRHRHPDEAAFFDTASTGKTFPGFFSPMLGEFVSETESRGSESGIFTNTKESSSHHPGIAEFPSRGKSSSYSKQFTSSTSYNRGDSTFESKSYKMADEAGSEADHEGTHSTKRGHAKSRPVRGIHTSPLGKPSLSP
T2 sequence (P02675 31-491 partner): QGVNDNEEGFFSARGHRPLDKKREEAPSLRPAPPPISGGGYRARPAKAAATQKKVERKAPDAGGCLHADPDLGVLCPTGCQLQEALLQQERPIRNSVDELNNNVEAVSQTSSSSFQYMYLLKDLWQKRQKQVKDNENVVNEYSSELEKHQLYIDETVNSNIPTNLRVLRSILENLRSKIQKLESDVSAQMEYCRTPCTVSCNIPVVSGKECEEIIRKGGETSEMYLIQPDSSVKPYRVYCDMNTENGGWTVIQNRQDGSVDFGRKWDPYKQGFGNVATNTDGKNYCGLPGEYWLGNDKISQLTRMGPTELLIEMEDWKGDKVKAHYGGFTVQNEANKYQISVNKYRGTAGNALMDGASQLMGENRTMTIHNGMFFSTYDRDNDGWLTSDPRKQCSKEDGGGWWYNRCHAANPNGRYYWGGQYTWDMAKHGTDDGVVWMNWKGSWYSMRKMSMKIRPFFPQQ
T2 sequence (P02679 27-437 isoform P02679-2 partner limits assumed): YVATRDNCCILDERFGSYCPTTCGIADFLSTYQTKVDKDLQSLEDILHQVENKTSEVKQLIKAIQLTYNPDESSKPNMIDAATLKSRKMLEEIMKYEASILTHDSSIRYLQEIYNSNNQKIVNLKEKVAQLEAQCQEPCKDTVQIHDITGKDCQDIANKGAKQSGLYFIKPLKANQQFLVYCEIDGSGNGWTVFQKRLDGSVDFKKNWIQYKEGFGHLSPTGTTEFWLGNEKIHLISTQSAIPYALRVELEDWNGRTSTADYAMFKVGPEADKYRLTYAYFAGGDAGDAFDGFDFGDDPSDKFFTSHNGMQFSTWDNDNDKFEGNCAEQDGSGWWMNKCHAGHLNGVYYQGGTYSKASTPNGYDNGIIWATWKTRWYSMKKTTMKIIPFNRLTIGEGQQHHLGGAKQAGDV
Description: as §1

fibrinogen [2] = molecular target: T2, fibrinogen; test: Factor XIIIa-mediated incorporation of FITC-labeled thymosin β4 into fibrinogen (spectrophotometric); assay type: biochemical
Description: Reactions of incorporation of FITC-labeled and unlabeled thymosin β4 into fibrinogen and fibrin were performed in Eppendorf tubes containing a mixture of fibrinogen at 3 mg/mL (9 μM) and thymosin β4 or FITC-labeled thymosin β4 at […] (30 μM) in 100 μL TBS with 2.5 mM CaCl2. The reactions were initiated by addition of FXIIIa(Ca) or FXIIIa(Thr) to final concentration of 30 μg/mL. The final concentration of thrombin in the FXIIIa(Thr)-containing mixtures was made at 2.5 NIH u/mL, sufficient to rapidly form fibrin clot which was observed visually. The reactions with FITC-labeled thymosin β4 lasted for 4 hours at 37° C. in the dark and were stopped by heat inactiviation of the enzymes in boiling water for 5 min during fibrinogen and fibrin denatured and precipitated. The pellets were centrifuged and washed 3 times in TBS and then solubilized. The amounts of fibrin(ogen) and FITC-labeled thymosin β4 in the solubilized pellet were determined spectrophotomertrically using absorption molar coefficients E280,1%=15.0 and ε495=72,000 M^−1cm^−1, respectively. To prepare samples with unlabeled thymosin β4 for analysis by SDS-PAGE and Western blot the reaction mixtures at the indicated time were heat-inactivated as above and solubilized by addition of sample buffer (Invitrogen) containing SDS and reducing agent.

Substance: thymosin β4
- non-covalent interaction with Aα221-391 sub-fragment (ELISA) (Aα221-391 sub-fragment; non-activated factor XIII or without it): no significant non-covalent interaction
- incorporation into immobilized Aα221-391 (ELISA) (Aα221-391 sub-fragment; presence of factor XIIIa): very low
- factor XIIIa-mediated incorporation into immobilized fibrinogen (ELISA signal) (fibrinogen [1]; factor XIII activated by CaCl2): the signal substantially increased
- non-covalent interaction with immobilized fibrinogen (ELISA signal) (fibrinogen [1]; thymosin β4 150 μg/mL (30 μm), absence of factor XIII or non-activated factor XIII): no significant non-covalent interaction
- degree of incorporation into fibrinogen (fibrinogen [2]; fibrinogen 9 μM, thymosin β4 30 μM, factor XIIIa, 4 hours, 37° C.): 0.2 moles per mole
- molar incorporation ratio of thymosin β4 to fibrinogen (fibrinogen [2]; physiological concentrations of fibrin(ogen) and factor XIII): 0.2
